Sequences and labels used below:
T1: Human LRRC15 Protein, His Tag (Acro Biosystems) (human, UniProt Q8TF66 22-538, limits assumed)
T1 construct: Bought protein with His tag
T1 sequence (looked up): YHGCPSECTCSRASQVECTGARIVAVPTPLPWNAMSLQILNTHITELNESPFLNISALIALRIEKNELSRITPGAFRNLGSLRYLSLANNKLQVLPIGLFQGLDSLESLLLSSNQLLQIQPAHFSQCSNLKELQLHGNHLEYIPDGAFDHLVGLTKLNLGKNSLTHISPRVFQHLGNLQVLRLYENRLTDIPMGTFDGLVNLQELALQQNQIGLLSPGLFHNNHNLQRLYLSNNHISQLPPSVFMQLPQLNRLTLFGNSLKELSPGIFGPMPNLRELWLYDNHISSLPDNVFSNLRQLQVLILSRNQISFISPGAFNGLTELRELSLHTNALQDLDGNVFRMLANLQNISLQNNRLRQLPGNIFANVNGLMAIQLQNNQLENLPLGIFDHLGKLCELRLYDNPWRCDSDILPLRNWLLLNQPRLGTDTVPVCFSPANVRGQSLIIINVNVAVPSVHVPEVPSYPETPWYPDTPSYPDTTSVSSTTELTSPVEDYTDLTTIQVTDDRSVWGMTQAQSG

T2: Human LRRC15 Protein, His Tag (Acro Biosystems) (human, UniProt Q8TF66 22-538, limits assumed)
T2 construct: not shown: His tag
T2 sequence (looked up): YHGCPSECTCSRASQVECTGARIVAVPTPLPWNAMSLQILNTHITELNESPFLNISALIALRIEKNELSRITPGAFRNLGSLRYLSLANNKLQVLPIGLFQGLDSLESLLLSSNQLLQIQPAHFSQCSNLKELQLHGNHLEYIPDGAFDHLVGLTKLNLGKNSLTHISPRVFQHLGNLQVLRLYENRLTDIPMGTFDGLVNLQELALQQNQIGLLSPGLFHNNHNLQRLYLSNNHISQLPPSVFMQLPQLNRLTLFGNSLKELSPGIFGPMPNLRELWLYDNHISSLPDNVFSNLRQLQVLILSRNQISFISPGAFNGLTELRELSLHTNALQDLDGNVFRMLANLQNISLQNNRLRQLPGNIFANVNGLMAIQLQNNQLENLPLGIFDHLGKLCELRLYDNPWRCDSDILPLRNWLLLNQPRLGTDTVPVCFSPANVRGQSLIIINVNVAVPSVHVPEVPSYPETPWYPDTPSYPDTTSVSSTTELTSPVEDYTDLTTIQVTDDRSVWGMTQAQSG

B1: MYT6122 (antibody, V domains shown)
VH: QEQLEESGGDLVKPGASLTLTCTASGLDFRRTNYICWVRQAPGKGLEWIGCIYIADVVHYYASWAKGRFTFSKTSSTTVTLQMTSLTAADTATYFCARGADGGFVYGMDLWGPGTLVTVSS
VL: DVVMTQTPASVSEPVGGTVTIKCHASQSIGNYLSWYQQKPGQRPKRLIYSASTLPSGVPSRFKGAGSGTEFTLTISDLESADAATYYCQNNYWLAGYGHPFGGGTEVVVK
notes: rabbit 15G7 VL Q24H; chimeric, human constant regions
B2: MYT6128 (antibody, V domains shown)
VH: QEQLEESGGDLVKPGASLTLTCTASGLDFRRTNYICWVRQAPGKGLEWIGCIYIADVVHYYASWAKGRFTFSKTSSTTVTLQMTSLTAADTATYFCARGADGGFVYGMDLWGPGTLVTVSS
VL: DVVMTQTPASVSEPVGGTVTIKCQASQSIHNYLSWYQQKPGQRPKRLIYSASTLPSGVPSRFKGAGSGTEFTLTISDLESADAATYYCQNNYWLAGYGHPFGGGTEVVVK
notes: rabbit 15G7 VL G30H; chimeric, human constant regions
B3: MYT6126 (antibody, V domains shown)
VH: QEQLEESGGDLVKPGASLTLTCTASGLDFRRTNYICWVRQAPGKGLEWIGCIYIADVVHYYASWAKGRFTFSKTSSTTVTLQMTSLTAADTATYFCARGADGGFVYGMDLWGPGTLVTVSS
VL: DVVMTQTPASVSEPVGGTVTIKCQASQHIGNYLSWYQQKPGQRPKRLIYSASTLPSGVPSRFKGAGSGTEFTLTISDLESADAATYYCQNNYWLAGYGHPFGGGTEVVVK
notes: rabbit 15G7 VL S28H; chimeric, human constant regions
B4: MYT6129 (antibody, V domains shown)
VH: QEQLEESGGDLVKPGASLTLTCTASGLDFRRTNYICWVRQAPGKGLEWIGCIYIADVVHYYASWAKGRFTFSKTSSTTVTLQMTSLTAADTATYFCARGADGGFVYGMDLWGPGTLVTVSS
VL: DVVMTQTPASVSEPVGGTVTIKCQASQSIGHYLSWYQQKPGQRPKRLIYSASTLPSGVPSRFKGAGSGTEFTLTISDLESADAATYYCQNNYWLAGYGHPFGGGTEVVVK
notes: rabbit 15G7 VL N31H; chimeric, human constant regions
B5: MYT6127 (antibody, V domains shown)
VH: QEQLEESGGDLVKPGASLTLTCTASGLDFRRTNYICWVRQAPGKGLEWIGCIYIADVVHYYASWAKGRFTFSKTSSTTVTLQMTSLTAADTATYFCARGADGGFVYGMDLWGPGTLVTVSS
VL: DVVMTQTPASVSEPVGGTVTIKCQASQSHGNYLSWYQQKPGQRPKRLIYSASTLPSGVPSRFKGAGSGTEFTLTISDLESADAATYYCQNNYWLAGYGHPFGGGTEVVVK
notes: rabbit 15G7 VL I29H; chimeric, human constant regions
B6: MYT6125 (antibody, V domains shown)
VH: QEQLEESGGDLVKPGASLTLTCTASGLDFRRTNYICWVRQAPGKGLEWIGCIYIADVVHYYASWAKGRFTFSKTSSTTVTLQMTSLTAADTATYFCARGADGGFVYGMDLWGPGTLVTVSS
VL: DVVMTQTPASVSEPVGGTVTIKCQASHSIGNYLSWYQQKPGQRPKRLIYSASTLPSGVPSRFKGAGSGTEFTLTISDLESADAATYYCQNNYWLAGYGHPFGGGTEVVVK
notes: rabbit 15G7 VL Q27H; chimeric, human constant regions
B7: MYT6124 (antibody, V domains shown)
VH: QEQLEESGGDLVKPGASLTLTCTASGLDFRRTNYICWVRQAPGKGLEWIGCIYIADVVHYYASWAKGRFTFSKTSSTTVTLQMTSLTAADTATYFCARGADGGFVYGMDLWGPGTLVTVSS
VL: DVVMTQTPASVSEPVGGTVTIKCQAHQSIGNYLSWYQQKPGQRPKRLIYSASTLPSGVPSRFKGAGSGTEFTLTISDLESADAATYYCQNNYWLAGYGHPFGGGTEVVVK
notes: rabbit 15G7 VL S26H; chimeric, human constant regions
B8: MYT6123 (antibody, V domains shown)
VH: QEQLEESGGDLVKPGASLTLTCTASGLDFRRTNYICWVRQAPGKGLEWIGCIYIADVVHYYASWAKGRFTFSKTSSTTVTLQMTSLTAADTATYFCARGADGGFVYGMDLWGPGTLVTVSS
VL: DVVMTQTPASVSEPVGGTVTIKCQHSQSIGNYLSWYQQKPGQRPKRLIYSASTLPSGVPSRFKGAGSGTEFTLTISDLESADAATYYCQNNYWLAGYGHPFGGGTEVVVK
notes: rabbit 15G7 VL A25H; chimeric, human constant regions
B9: MYT7950 (antibody, V domains shown)
VH: QQQLVESGGGLVKPGASLTLTCKASGFSFSGSYWICWVRQAPGKGLEWIGCINGGSLDITYYASWAKGRFTISKASSTTVTLQKTSLTAADTATYFCASDTSYTAYGNFYFNLWGPGTLVTVSS
VL: AQVLTQTASPVSAAVGGTVTINCQSSQSVLNNNWLAWYQQKPGQPPKLLIYDASSLASGVPSRFKGSGSGTQFTLTISDLESDDAATYYCQGEFHCGSADCNAFGGGTEVVVKG
notes: tested as culture supernatant; also called 24D9 VL S95H
B10: MYT7954 (antibody, V domains shown)
VH: QQQLVESGGGLVKPGASLTLTCKASGFSFSGSYWICWVRQAPGKGLEWIGCINGGSLDITYYASWAKGRFTISKASSTTVTLQKTSLTAADTATYFCASDTSYTAYGNFYFNLWGPGTLVTVSS
VL: AQVLTQTASPVSAAVGGTVTINCQSSQSVLNNNWLAWYQQKPGQPPKLLIYDASSLASGVPSRFKGSGSGTQFTLTISDLESDDAATYYCQGEFSCGSHDCNAFGGGTEVVVKG
notes: also called 24D9 VL A99H
B11: MYT7952 (antibody, V domains shown)
VH: QQQLVESGGGLVKPGASLTLTCKASGFSFSGSYWICWVRQAPGKGLEWIGCINGGSLDITYYASWAKGRFTISKASSTTVTLQKTSLTAADTATYFCASDTSYTAYGNFYFNLWGPGTLVTVSS
VL: AQVLTQTASPVSAAVGGTVTINCQSSQSVLNNNWLAWYQQKPGQPPKLLIYDASSLASGVPSRFKGSGSGTQFTLTISDLESDDAATYYCQGEFSCHSADCNAFGGGTEVVVKG
notes: tested as culture supernatant; also called 24D9 VL G97H
B12: MYT7953 (antibody, V domains shown)
VH: QQQLVESGGGLVKPGASLTLTCKASGFSFSGSYWICWVRQAPGKGLEWIGCINGGSLDITYYASWAKGRFTISKASSTTVTLQKTSLTAADTATYFCASDTSYTAYGNFYFNLWGPGTLVTVSS
VL: AQVLTQTASPVSAAVGGTVTINCQSSQSVLNNNWLAWYQQKPGQPPKLLIYDASSLASGVPSRFKGSGSGTQFTLTISDLESDDAATYYCQGEFSCGHADCNAFGGGTEVVVKG
notes: tested as culture supernatant; also called 24D9 VL S98H
B13: MYT7955 (antibody, V domains shown)
VH: QQQLVESGGGLVKPGASLTLTCKASGFSFSGSYWICWVRQAPGKGLEWIGCINGGSLDITYYASWAKGRFTISKASSTTVTLQKTSLTAADTATYFCASDTSYTAYGNFYFNLWGPGTLVTVSS
VL: AQVLTQTASPVSAAVGGTVTINCQSSQSVLNNNWLAWYQQKPGQPPKLLIYDASSLASGVPSRFKGSGSGTQFTLTISDLESDDAATYYCQGEFSCGSAHCNAFGGGTEVVVKG
notes: tested as culture supernatant; also called 24D9 VL D100H
B14: MYT7958 (antibody, V domains shown)
VH: QQQLVESGGGLVKPGASLTLTCKASGFSFSGSYWICWVRQAPGKGLEWIGCINGGSLDITYYASWAKGRFTISKASSTTVTLQKTSLTAADTATYFCASDTSYTAYGNFYFNLWGPGTLVTVSS
VL: AQVLTQTASPVSAAVGGTVTINCQSSQSVLNNNWLAWYQQKPGQPPKLLIYDASSLASGVPSRFKGSGSGTQFTLTISDLESDDAATYYCQGEFSCGSADCNHFGGGTEVVVKG
notes: tested as culture supernatant; also called 24D9 VL A103H
B15: MYT7957 (antibody, V domains shown)
VH: QQQLVESGGGLVKPGASLTLTCKASGFSFSGSYWICWVRQAPGKGLEWIGCINGGSLDITYYASWAKGRFTISKASSTTVTLQKTSLTAADTATYFCASDTSYTAYGNFYFNLWGPGTLVTVSS
VL: AQVLTQTASPVSAAVGGTVTINCQSSQSVLNNNWLAWYQQKPGQPPKLLIYDASSLASGVPSRFKGSGSGTQFTLTISDLESDDAATYYCQGEFSCGSADCHAFGGGTEVVVKG
notes: tested as culture supernatant; also called 24D9 VL N102H
B16: MYT7951 (antibody, V domains shown)
VH: QQQLVESGGGLVKPGASLTLTCKASGFSFSGSYWICWVRQAPGKGLEWIGCINGGSLDITYYASWAKGRFTISKASSTTVTLQKTSLTAADTATYFCASDTSYTAYGNFYFNLWGPGTLVTVSS
VL: AQVLTQTASPVSAAVGGTVTINCQSSQSVLNNNWLAWYQQKPGQPPKLLIYDASSLASGVPSRFKGSGSGTQFTLTISDLESDDAATYYCQGEFSHGSADCNAFGGGTEVVVKG
notes: tested as culture supernatant; also called 24D9 VL C96H

The target in the first experiment is T1, Human LRRC15 Protein, His Tag (Acro …). The experiment is described as follows: BLI; dissociation pH 7.4 black, pH 5.4 grey [D00008 FIG. 1F]. An excerpt: For each individual plot, antigen binding proteins were captured on anti-human Fc biosensors and associated with LRRC15 at pH 7.4. Dissociation was at pH 7.4 (black) or pH 5.4 (grey). Major X-axis ticks=100 seconds, with left dashed vertical line=0 seconds. Major Y-axis ticks=0.5 nm and octet plots are shown MYT5712 and MYT6080-MYT6121.
Multiple LRRC15-binding monoclonal antibodies have been described in the literature and can be used as a template for engineering pH-dependent binding. We selected discovery RabMAb clone 15G7 (rabbit VH SEQ ID NO: 378, rabbit VL SEQ ID NO: 451; humanized VH SEQ ID NO: 382, humanized VL SEQ ID NO: 455) as a LRRC15-binding monoclonal antibody for pH-engineering via histidine scanning. […] To generate pH-dependent sequence variants, individual amino acid residues within the heavy chain CDRs were systematically substituted with a histidine (or alanine if H was already present in a given position; e.g., MYT6099), one at a time (rabbit, MYT6080-6121). Desirable mutations were transferred to a humanized framework (humanized, MYT 8387-8411). After allowing for four days of protein expression, cell culture supernatants were collected, quantified by SDS-PAGE analysis, and the pH dependence of the variant was evaluated using biolayer interferometry (BLI) on an Octet RED 96e instrument. Briefly, cell culture supernatants were diluted based on qualitative expression level of the variant determined by visual examination of SDS-PAGE gels, 5 μL of cell culture supernatant was diluted into 195 μL of 1×PBST, pH 7.4 for high expressors, 25 μL of cell culture supernatant was diluted into 175 μL of 1×PBST, pH 7.4 for medium expressors and 100 μL of cell culture supernatant was diluted into 100 μL of 1×PBST, pH 7.4 for low expressors for loading onto the sensor tips.
A general note: Biolayer interferometry detects binding as a change in optical thickness at a sensor tip.
As for B1, the binding result is reported as “binds”.

Turning to B2, the binding result is reported as “binds”.

As to B3, the binding result was “binds”.

Take B4: the binding result was “binds”.

For the molecule B5, the binding result was “binds”.

B6: the binding result is recorded as “binds”.

Consider B7, for which the binding result is on record as “binds”.

Regarding B8, the binding result was “binds”.

The target of a further experiment is T2, Human LRRC15 Protein, His Tag (Acro …). The experiment in a line: BLI; dissociation pH 7.4 black, pH 5.4 grey [D00016 FIG. 3B].
For B9, the binding result is “no binding (tested: 50 nM LRRC15)”.

For the molecule B10, the binding result is “binds”.

B11: the binding result is recorded as “binds”.

Consider B12, for which the binding result is “binds”.

Turning to B13, the binding result is reported as “no binding (tested: 50 nM LRRC15)”.

As for B14, the binding result was “no binding (tested: 50 nM LRRC15)”.

With B15, the binding result was “no binding (tested: 50 nM LRRC15)”.

With B16, the binding result is given as “no binding (tested: 50 nM LRRC15)”.

These data come from patent publication US20250352661A1 (MYTHIC THERAPEUTICS, published 2025).
